In article PMC5693750 (Journal of molecular biology, 2017):
Values belong to the molecule of their own block, whether it stands above or below them.

B1: Swi6 (full-length, wild type) (natural protein, S. pombe, UniProt P40381 1-328, looked up)
chain: MKKGGVRSYRRSSTSKRSVIDDDSEPELPSMTKEAIASHKADSGSSDNEVESDHESKSSSKKLKENAKEEEGGEEEEEDEYVVEKVLKHRMARKGGGYEYLLKWEGYDDPSDNTWSSEADCSGCKQLIEAYWNEHGGRPEPSKRKRTARPKKPEAKEPSPKSRKTDEDKHDKDSNEKIEDVNEKTIKFADKSQEEFNENGPPSGQPNGHIESDNESKSPSQKESNESEDIQIAETPSNVTPKKKPSPEVPKLPDNRELTVKQVENYDSWEDLVSSIDTIERKDDGTLEIYLTWKNGAISHHPSTITNKKCPQKMLQFYESHLTFRENE
B2: Chp2 (full-length, wild type) (natural protein, S. pombe, UniProt O42934 1-380, looked up)
chain: MVKSADLDLMNSIISESDENFSPPPFTVEEAENSINNKSSTASLESPQNGSWHPSLYGLSVPEKTHIQNSLDLYSHGNSGSQKTHNVSFSCEIRKVKSSKLSPISNMEDSEDKKEEDESSSYKNEFKSSSSASVSSNFEKTSGSDDHNSQSPVPLNEGFEYIASSGSEDKNSDEEFAVEMILDSRMKKDGSGFQYYLKWEGYDDPSDNTWNDEEDCAGCLELIDAYWESRGGKPDLSSLIRLTRSRARSSNEASYVEKDESSNSDDSISYKRRRSRNAANRITDYVDSDLSESSMKEKQSKIEKYMKSDKSSKNFKPPFQKKSWEDLVDCVKTVQQLDNGKLIAKIKWKNGYVSTHDNIIIHQKCPLKIIEYYEAHIKFT

What was measured:
[1] = target: H3Kc9me3 mononucleosome (Xenopus laevis); test: fluorescence polarisation
[2] = target: H3Kc9me3 mononucleosome (Xenopus laevis); test: AUC
[3] = target: T1, Swi6 chromoshadow domain (CSD) (S. pombe, UniProt P40381 261-328); test: NMR titration
T1 sequence: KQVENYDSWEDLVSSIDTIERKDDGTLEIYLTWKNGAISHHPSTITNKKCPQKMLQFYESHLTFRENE

H3K9me3 tail peptide = test: fluorescence polarisation
[4] = target: Unmethylated H3 tail peptide; test: fluorescence polarisation
AUC [5] = target: the molecule itself; test: AUC
AUC [6] = target: the molecule itself; test: AUC; remark: listed apart in the source
[7] = target: B2; test: fluorescence polarisation
[8] = target: B1; test: fluorescence polarisation

Kd [1]: 0.13 µM
Molecule: Swi6 (full-length, wild type) (from UniProt P40381 1-328) (natural protein)

Kd [1]: 0.43 µM | stoichiometry N [2]: 4
Molecule: Chp2 (full-length, wild type) (from UniProt O42934 1-380) (natural protein)

fold weaker Kd than wild-type Chp2 [1]: 3 fold
Molecule: Chp2 I370E (from UniProt O42934 1-380) (natural protein)

fold weaker Kd than wild-type Swi6 [1]: 8.5 fold
Molecule: Swi6 L315D (from UniProt P40381 1-328) (natural protein)

Kd [3]: 68 ± 15 µM | Kd fitted for residue E280 [3]: 62.5 ± 15.4 | Kd fitted for residue H321 [3]: 51.9 ± 7.84
Molecule: RAVTQYLLHLLQKARPTSQ [Clr3 peptide]

Molecule: B1
fold weaker binding than Chp2 to the same peptide (H3K9me3 tail peptide): 5.5 fold | fold weaker binding than Swi6 to H3Kc9me3 nucleosomes (H3K9me3 tail peptide): 77 fold | fold weaker binding than to the H3K9me3 tail peptide [4]: > 10 fold | binding result (AUC [5]): binds

Molecule: B2
Kd (H3K9me3 tail peptide): 1.85 µM | fold weaker binding than to the H3K9me3 tail peptide [4]: > 10 fold | Kd (AUC [6]): 183 µM

Kd [7]: 58.5 µM | Kd [8]: 6.6 ± 2.1 µM
Molecule: EKAKTSNVCVCIPCKSAEQ [Sgo1 peptide]
